Assays:
[1] = molecular target: HA- and RLuc8-tagged CXCR5 (HA-CXCR5-Rluc8) in ΔQ-GRK HEK293 cells (GRK2/3/5/6 deleted; not phosphorylated by GRKs) (UniProt P32302)
[2] = molecular target: HA- and RLuc8-tagged CXCR5 (HA-CXCR5-Rluc8), CXCL13-stimulated, in cells that express GRKs (GRK-phosphorylated) (UniProt P32302)

B1: CXCL13 (ligand)
chain: VLEVYYTSLRCRCVQESSVFIPRRFIDRIQILPRGNGCPRKEIIVWKKNKSIVCVDPQAEWIQRMMEVLRKRSSSTLPVPVFKRKIP
**Q.** How did the potency (EC50) of CXCL13 (1-100 nM) for G protein activation by FLAG-CXCR5 in ΔQ-GRK HEK293 cells: loss of BRET between Gαi1-Rluc8 and Gβ3γ9-GFP2 (TRUEPATH), area under the curve [1] turn out when B1 was run?
**A.** 0.85 nM

**Q.** What about the potency (EC50) of CXCL13 (1-100 nM) for G protein activation by FLAG-CXCR5 in WT HEK293 cells: loss of BRET between Gαi1-Rluc8 and Gβ3γ9-GFP2 (TRUEPATH), area under the curve [2] of the same binder?
**A.** 1 nM

Reference: paper PMC12859505
